{"source": "the RNAGym collection of RNA variant scans (doi:10.7554/elife.80360)", "parents": {"B1": {"name": "Hairpin Ribozyme (parent)", "chain": "GUCCUCUUUCACGUGCGCGUGAAAGAGAGAAGUGAACCAGAGAAACACACGUUGUGGUAUAUUACCUGGUA"}}, "data": [{"variants_of": "B1", "test": "self-cleavage, relative activity (ratio to wild type); higher = more cleavage; co-transcriptional", "values": [{"variant": "U33A U52C", "self-cleavage": 0.122}, {"variant": "A31U U70A", "self-cleavage": 0.0877}, {"variant": "U33G C46U", "self-cleavage": 0.16}, {"variant": "U33G C46A", "self-cleavage": 0.0768}, {"variant": "G32C G34C", "self-cleavage": 0.101}, {"variant": "U33C C65U", "self-cleavage": 0.2}, {"variant": "A31U G69A", "self-cleavage": 0.182}, {"variant": "U33A G56A", "self-cleavage": 0.239}, {"variant": "U33A G56U", "self-cleavage": 0.156}, {"variant": "U33G U63G", "self-cleavage": 0.198}, {"variant": "G32A C65G", "self-cleavage": 0.102}, {"variant": "G32A C65A", "self-cleavage": 0.0853}, {"variant": "U33G C50G", "self-cleavage": 0.12}, {"variant": "G32U C50A", "self-cleavage": 0.0903}, {"variant": "A31C U63A", "self-cleavage": 0.162}, {"variant": "U33C U58C", "self-cleavage": 0.169}, {"variant": "G32C U58C", "self-cleavage": 0.0937}, {"variant": "U33A C48G", "self-cleavage": 0.123}, {"variant": "U33A C48U", "self-cleavage": 0.0718}, {"variant": "A31G C48A", "self-cleavage": 0.164}, {"variant": "G32C G57A", "self-cleavage": 0.0977}, {"variant": "G32C G57U", "self-cleavage": 0.072}, {"variant": "U33G G69U", "self-cleavage": 0.123}, {"variant": "U33G G69A", "self-cleavage": 0.0603}, {"variant": "G32C A61G", "self-cleavage": 0.136}, {"variant": "A31U U63A", "self-cleavage": 0.0279}, {"variant": "A31U U63G", "self-cleavage": 0.0484}, {"variant": "G34A A43G", "self-cleavage": 0.0724}, {"variant": "G32C A45C", "self-cleavage": 0.145}, {"variant": "G32C A45G", "self-cleavage": 0.0948}, {"variant": "G32C C65G", "self-cleavage": 0.0614}, {"variant": "U33G U67C", "self-cleavage": 0.111}, {"variant": "U33G U67A", "self-cleavage": 0.146}, {"variant": "U33G U60G", "self-cleavage": 0.0365}, {"variant": "U33G U60A", "self-cleavage": 0.0846}, {"variant": "U33C C37A", "self-cleavage": 0.182}, {"variant": "U33C C37U", "self-cleavage": 0.0997}, {"variant": "U33G G57A", "self-cleavage": 0.115}, {"variant": "U33G G57C", "self-cleavage": 0.108}, {"variant": "A31G U53G", "self-cleavage": 0.495}, {"variant": "U33C A43C", "self-cleavage": 0}, {"variant": "U33C A43U", "self-cleavage": 0.231}, {"variant": "U33C C50A", "self-cleavage": 0.114}, {"variant": "G32U U63C", "self-cleavage": 0.268}, {"variant": "G32U U63G", "self-cleavage": 0.113}, {"variant": "G32C G56A", "self-cleavage": 0.13}, {"variant": "G32C G56C", "self-cleavage": 0.149}, {"variant": "U33A U63G", "self-cleavage": 0.27}, {"variant": "U33A U63A", "self-cleavage": 0.0514}, {"variant": "A31U A39G", "self-cleavage": 0.0984}, {"variant": "A31U A41C", "self-cleavage": 0.154}, {"variant": "A31U C66A", "self-cleavage": 0.3}, {"variant": "A31U C66U", "self-cleavage": 0.0749}, {"variant": "A31G G57U", "self-cleavage": 0.23}, {"variant": "G32A C46G", "self-cleavage": 0.103}, {"variant": "G32A C46U", "self-cleavage": 0.148}, {"variant": "A31G U62A", "self-cleavage": 0.127}, {"variant": "A31G G40U", "self-cleavage": 0.168}, {"variant": "A31G G40A", "self-cleavage": 0.179}, {"variant": "A31G G40C", "self-cleavage": 0.247}, {"variant": "U33C C46A", "self-cleavage": 0.0278}, {"variant": "U33A C37A", "self-cleavage": 0.112}, {"variant": "U33A A71G", "self-cleavage": 0.178}, {"variant": "U33G A43G", "self-cleavage": 0.282}, {"variant": "G32C A71G", "self-cleavage": 0.238}, {"variant": "G32C A71U", "self-cleavage": 0.157}, {"variant": "G32C A71C", "self-cleavage": 0.215}, {"variant": "G32U G68C", "self-cleavage": 0.0784}, {"variant": "A31G U70A", "self-cleavage": 0.509}, {"variant": "A31U A43C", "self-cleavage": 0.169}, {"variant": "A31C U60C", "self-cleavage": 0.188}, {"variant": "G32U A49U", "self-cleavage": 0.0712}, {"variant": "G32U C38A", "self-cleavage": 0.0741}, {"variant": "U33C A44G", "self-cleavage": 0.0547}, {"variant": "U33C A44U", "self-cleavage": 0.195}, {"variant": "U33G A71U", "self-cleavage": 0.067}, {"variant": "U33G A71C", "self-cleavage": 0.307}, {"variant": "U33G A59C", "self-cleavage": 0.139}, {"variant": "A31G C50U", "self-cleavage": 0.266}, {"variant": "A31G C50G", "self-cleavage": 0.176}, {"variant": "U33C A39G", "self-cleavage": 0.134}, {"variant": "U33G A61U", "self-cleavage": 0.0863}, {"variant": "U33G A61G", "self-cleavage": 0.229}, {"variant": "U33G U52A", "self-cleavage": 0.17}, {"variant": "U33G U52C", "self-cleavage": 0.145}, {"variant": "G32C A39C", "self-cleavage": 0.135}, {"variant": "U33G G51U", "self-cleavage": 0.252}, {"variant": "U33G G51C", "self-cleavage": 0.202}, {"variant": "U33G A39C", "self-cleavage": 0.149}, {"variant": "G32A U33C", "self-cleavage": 0.119}, {"variant": "U33A A44U", "self-cleavage": 0.141}, {"variant": "U33C A35U", "self-cleavage": 0.162}, {"variant": "U33C G57U", "self-cleavage": 0.19}, {"variant": "A31G U33C", "self-cleavage": 0.0729}, {"variant": "A31G U33A", "self-cleavage": 0.165}, {"variant": "G32U A45C", "self-cleavage": 0.153}, {"variant": "A31G G69A", "self-cleavage": 0.178}, {"variant": "A31G G69U", "self-cleavage": 0.258}, {"variant": "U33G A64U", "self-cleavage": 0.144}, {"variant": "G32A C48A", "self-cleavage": 0.128}, {"variant": "U33A C38U", "self-cleavage": 0.0932}, {"variant": "U33C G56A", "self-cleavage": 0.0589}, {"variant": "U33C G56C", "self-cleavage": 0.167}, {"variant": "G32C G68C", "self-cleavage": 0.112}, {"variant": "G32C G68U", "self-cleavage": 0.135}, {"variant": "U33C A49G", "self-cleavage": 0.123}, {"variant": "A31G G54C", "self-cleavage": 0.276}, {"variant": "G32A A47C", "self-cleavage": 0.143}, {"variant": "U33A A59G", "self-cleavage": 0.106}, {"variant": "G34A A41U", "self-cleavage": 1.23}, {"variant": "A31G A45U", "self-cleavage": 0.236}, {"variant": "A31G A45C", "self-cleavage": 0.241}, {"variant": "G32A G57C", "self-cleavage": 0.117}, {"variant": "G32C G69A", "self-cleavage": 0.149}, {"variant": "G32C U67C", "self-cleavage": 0.105}, {"variant": "U33C A41U", "self-cleavage": 0.159}, {"variant": "A31G A39U", "self-cleavage": 0.105}, {"variant": "A31G A39C", "self-cleavage": 0.253}, {"variant": "U33C", "self-cleavage": 0.161}, {"variant": "U33G", "self-cleavage": 0.127}, {"variant": "U33A", "self-cleavage": 0.147}, {"variant": "U33G A45C", "self-cleavage": 0.112}, {"variant": "U33G A45G", "self-cleavage": 0.0332}, {"variant": "U33C U53C", "self-cleavage": 0.154}, {"variant": "G32C C50U", "self-cleavage": 0.0935}, {"variant": "G32A A39U", "self-cleavage": 0.108}, {"variant": "A31U A64G", "self-cleavage": 0.0407}, {"variant": "G32C U52G", "self-cleavage": 0.125}, {"variant": "U33A A49U", "self-cleavage": 0.194}, {"variant": "G32C G54A", "self-cleavage": 0.0613}, {"variant": "G32C G54U", "self-cleavage": 0.0594}, {"variant": "G32A A59U", "self-cleavage": 0.167}, {"variant": "U33A A36U", "self-cleavage": 0.0862}, {"variant": "G32U G69A", "self-cleavage": 0.115}, {"variant": "U33G U70C", "self-cleavage": 0.101}, {"variant": "U33A A64G", "self-cleavage": 0.164}, {"variant": "A31U C37G", "self-cleavage": 0.237}, {"variant": "U33G U55C", "self-cleavage": 0.117}, {"variant": "A31G U60C", "self-cleavage": 0.836}, {"variant": "A31G C38U", "self-cleavage": 0.272}, {"variant": "A31G C38G", "self-cleavage": 0.0773}, {"variant": "G32U A59U", "self-cleavage": 0.0402}, {"variant": "G32U A59C", "self-cleavage": 0.0899}, {"variant": "A31U A49C", "self-cleavage": 0.139}, {"variant": "A31U A49G", "self-cleavage": 0.121}, {"variant": "A31C U67G", "self-cleavage": 0.0719}, {"variant": "A31G C65U", "self-cleavage": 0.252}, {"variant": "G32U A44G", "self-cleavage": 0.0996}, {"variant": "U33C G68C", "self-cleavage": 0.0535}, {"variant": "A31U U62G", "self-cleavage": 0}, {"variant": "A31U U62C", "self-cleavage": 0.147}, {"variant": "U33A C46G", "self-cleavage": 0.176}, {"variant": "U33A C46A", "self-cleavage": 0.122}, {"variant": "U33G G42C", "self-cleavage": 0.166}, {"variant": "U33C G69U", "self-cleavage": 0.0808}, {"variant": "U33C A47G", "self-cleavage": 0.219}, {"variant": "U33G C65G", "self-cleavage": 0.122}, {"variant": "G32C U53G", "self-cleavage": 0.0828}, {"variant": "G32C U53A", "self-cleavage": 0.185}, {"variant": "U33A C50A", "self-cleavage": 0.18}, {"variant": "U33A C50U", "self-cleavage": 0.105}, {"variant": "U33A G34C", "self-cleavage": 0.777}, {"variant": "U33A G34A", "self-cleavage": 0.0987}, {"variant": "A31U A45G", "self-cleavage": 0.0267}, {"variant": "A31U A45U", "self-cleavage": 0.131}, {"variant": "U33A A45U", "self-cleavage": 0.2}, {"variant": "G32A A61U", "self-cleavage": 0.154}]}]}
